Data reported in PMC3909184.

Molecular target: CXCR4 (human) (UniProt P61073)
UniProt P61073, sequence (P61073 whole entry): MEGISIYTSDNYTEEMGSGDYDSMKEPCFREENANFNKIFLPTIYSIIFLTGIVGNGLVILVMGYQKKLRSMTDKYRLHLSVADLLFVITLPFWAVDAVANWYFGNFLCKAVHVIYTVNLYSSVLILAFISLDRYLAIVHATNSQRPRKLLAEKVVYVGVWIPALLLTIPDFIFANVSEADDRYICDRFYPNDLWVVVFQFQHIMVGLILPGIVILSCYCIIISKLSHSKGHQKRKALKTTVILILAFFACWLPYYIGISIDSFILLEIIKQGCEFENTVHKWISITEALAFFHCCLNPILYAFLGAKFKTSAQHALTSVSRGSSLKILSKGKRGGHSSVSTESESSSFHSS

- EC50 of Kir3* K+ current activation (TEVC, -50 mV) in Xenopus oocytes co-expressing CXCR4 and Kir3.1* or Kir3.4*; dose-response: 23 nM
Substance: WT CXCL12 (from UniProt P48061 22-93) (ligand)
